# Measured values taken from patent publication US20150064714A1, “Polypeptides containing a modified fragment of the peptide IF1” (LIFESEARCH, priority 2013, published 2015).
# No end group written: not given here. *: point of attachment. MTSL = spin label, CC1(C)C=C(CS*)C(C)(C)N1[O]
# Assays:
# ATPase = ATPase (Homo sapiens, UniProt P06576+P25705); conditions: fragment of IF1 of less than 34 amino acids in a fusion protein; cited from earlier work
# [1] = tested on: F1-ATPase or SMP (F0F1-ATPase); test: Measurement of the affinity of a labelled polypeptide for the ATPase (kinetics of inhibition of ATP hydrolysis, NADH disappearance at 340 nm); format: biochemical; conditions: kinetic results; 25° C., pH 6.5; polypeptide 15 nM to 2 μM
# Description: The hydrolysis of ATP by F1-ATPase or SMP (F0F1-ATPase) was measured according to the reaction illustrated below by following the disappearance of NADH over time at 340 nm.
# This reaction is carried out in a thermostatically controlled vessel (25° C.) in which the reaction medium pH 6.5 (50 mM MES, 20 mM KCl, 1 mM MgCl2, 0.4 mM NADH, 1 mM PEP, 20 units/mL pyruvate kinase and 50 unit/mL lactate dehydrogenase) is stirred. In the case of measurement of hydrolysis of ATP by the SMPs, the vessel also contains 3 μM antimycin and 3 μM FCCP.
# After recording for 2 to 4 minutes, a labelled polypeptide of the invention is injected into the measurement vessel at a concentration range of 15 nM to 2 μM and the ATPase activity decreases. The recordings are analysed and adjusted with a decreasing monoexponential function (equation 1 shown below) corresponding to the decline in the ATPase activity.
# By plotting the values of kapp obtained as a function of the concentration of IF1, the formation rate constant (kon) and dissociation rate constant (koff) of the inhibited complex F1ATPase/IF1 are determined according to the following equation: kapp=kon[I]+koff
# The relationship between the ratio V(I)/V(0) and the concentration of labelled polypeptide of the invention are linked according to the following equation:
# V(I)/V(0)=Vr+(1−Vr)/(1+[I]/k1),
# in which Vr is the fraction of V0 insensitive to IF1 inhibition.
# F1-ATPase = F1-ATPase (Bos taurus, UniProt P00829+P19483); conditions: point mutations of bovine IF1; cited from earlier work
molecule,measurement,setting,value
"fragment constituted by amino acid 14 to amino acid 46 of IF1: fragment of the protein IF1 in a fusion protein of US 2004/0072739 (AVRDAGGAFGKREQAEEERYFRARAKEQLAALK; UniProt P01096 39-71, looked up, fragment)",ATPase inhibiting activity,ATPase,better ATPase inhibiting activity
"SEQ ID NO: 25: cysteine-containing peptide: cysteine inserted into the median region of SEQ ID NO: 9, for labelling with the spin label MTSL (SEDSFVKRARATEDWFVRQREKEC(MTSL)QLRHLKEQLEKQRKK)",affinity for ATP synthase compared to that of natural IF1,[1],better affinity for ATP synthase
"Y33W: modified bovine IF1 containing the point mutation Y33W (Bason et al.) (protein, UniProt P01096 26-109, looked up, variant Y33W) ATPase inhibitor, …: GSESGDNVRSSAGAVRDAGGAFGKREQAEEERWFRARAKEQLAALKKHHENEISHHAKEIERLQKEIERHKQSIKKLKQSEDDD",affinity for F1-ATPase compared to the natural bovine IF1,F1-ATPase,better affinity
